Assay results taken from patent US20250188130A1.

Biological target: E glycoprotein of DENV2-FL-Mature (fusion loop N103S and G106L), on virus (Dengue virus serotype 2, strain S16803 (engineered)) (UniProt P18356)
Experiment: cell-based or functional assay

1M7 (antibody)
neutralization (FRNT, EC50) (logs (reduction against DENV2)): 2
